In patent publication US20200085871A1:
Where “and” joins values, the source holds several entries; their conditions need not be identical. Equal entries are not always repeated.

Target: mouse CD19 on B cells (mouse) (UniProt P25918)
Assay: cell-based or functional assay

UniProt P25918, sequence (P25918 19-547): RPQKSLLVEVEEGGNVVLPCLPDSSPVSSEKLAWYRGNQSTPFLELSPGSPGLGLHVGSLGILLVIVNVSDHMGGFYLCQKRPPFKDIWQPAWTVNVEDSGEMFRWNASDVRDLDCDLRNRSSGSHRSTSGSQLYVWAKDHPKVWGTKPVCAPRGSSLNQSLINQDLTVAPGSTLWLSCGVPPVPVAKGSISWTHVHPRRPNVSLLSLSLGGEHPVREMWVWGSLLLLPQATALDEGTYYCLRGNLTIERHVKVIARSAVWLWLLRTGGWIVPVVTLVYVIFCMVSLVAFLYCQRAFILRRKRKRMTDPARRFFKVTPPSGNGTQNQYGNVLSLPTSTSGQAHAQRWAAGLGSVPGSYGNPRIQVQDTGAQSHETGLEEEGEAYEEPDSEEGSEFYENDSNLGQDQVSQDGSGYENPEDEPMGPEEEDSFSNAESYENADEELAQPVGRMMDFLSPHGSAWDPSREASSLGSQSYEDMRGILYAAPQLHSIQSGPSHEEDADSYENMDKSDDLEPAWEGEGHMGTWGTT

“anti-CD19-28Z.1-3 CAR (1D3 anti-mouse CD19 chimeric antigen receptor), expressed on transduced mouse CD8+ cytotoxic T cells (from UniProt P31041 115-218; P24161 52-164)” was tested. Which percent CD19+ B cells remaining in CAR T-treated MRL/lpr mice (flow cytometry) did it give?
Its percent CD19+ B cells remaining in CAR T-treated MRL/lpr mice (flow cytometry) is 0.05% and 0.14%.
